Positions count from the first letter of the chain named. Read-outs that look alike come from different tables or passages of the source.
T1: CD24-GST fusion protein
T1 chain: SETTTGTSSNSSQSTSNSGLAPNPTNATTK

B1: PP6368 (antibody, V domains shown)
VH: EVKFEESGGGLVQPGGSIKLSCAASGVTFSEAWMDWVRQSPEKGLEWVAEIRDKPNSYVTYYAESVKGRFTISRDDSKSRVYLQMNNLRTEDTGIYYCTGAMDYWGQGTSVTVSS
VL: DIVMTQTPLSLSVTIGQPASISCKSSQSLLYSNGKTYLNWLQQRPGQSPKRLIYQVSKLDPGIPDRFSGSGSETDFTLKISRVEAEDLGIYYCMQGTYLPWTFGGGTKLEIKR
B2: PP6235 (antibody, V domains shown)
VH: B1 VH with T28A, E31G, P55T, N56K, S57N, I95V
VL: B1 VL with T97A, Y98S
B3: PP6231 (antibody, V domains shown)
VH: B1 VH with K54N, P55T, N56T, S57N
VL: B1 VL with M94L, Y98S, L99Y
B4: PP6226 (antibody, V domains shown)
VH: B1 VH with P55T, N56K, S57N
VL: B1 VL with M94L, Y98S, L99Y
B5: PP6230 (antibody, V domains shown)
VH: B1 VH with P55S, N56T, S57N
VL: B1 VL with M94L, Y98S, L99Y
B6: PP6387 (antibody, V domains shown)
VH: B1 VH with P55T, N56K, S57N, S79G
VL: B1 VL with T97S, Y98S
B7: PP6233 (antibody, V domains shown)
VH: B1 VH with P55T, N56K, S57N
VL: B1 VL with T97A, Y98S
B8: PP6388 (antibody, V domains shown)
VH: B1 VH with S40T, K54R, P55E, N56T, S57K
VL: B1 VL
B9: PP6228 (antibody, V domains shown)
VH: B1 VH with T28A, E31G, P55T, N56K, S57N, I95V
VL: B1 VL with M94L, Y98S, L99Y
B10: PP6232 (antibody, V domains shown)
VH: B1 VH with P55T, N56K, S57N
VL: B1 VL with I63T, Y98S, L99T
B11: PP6372 (antibody, V domains shown)
VH: B1 VH with P55Q, S57E
VL: B1 VL with T97S, Y98S
B12: PP6369 (antibody, V domains shown)
VH: B1 VH with T28P, E31G, P55T, N56K, S57N
VL: B1 VL
B13: PP6371 (antibody, V domains shown)
VH: B1 VH with S40T, K54R, P55E, N56T, S57K
VL: B1 VL with Y98S
B14: PP6370 (antibody, V domains shown)
VH: B1 VH with P55T, N56K, S57N, S79G
VL: B1 VL
B15: PP6234 (antibody, V domains shown)
VH: B1 VH with P55T, N56K, S57N
VL: B1 VL with I63T, T97A, Y98S, L99V
B16: PP6236 (antibody, V domains shown)
VH: B1 VH with K54N, P55T, N56T, S57N
VL: B1 VL with T97A, Y98S
B17: PP6373 (antibody, V domains shown)
VH: B1 VH
VL: B1 VL with T97S, Y98S

Assays:
Assay in all cases: competitive ELISA
CD24-GST fusion protein [1] = target: T1, CD24-GST fusion protein
CD24-GST fusion protein [2] = target: T1, CD24-GST fusion protein
CD24-GST fusion protein [3] = target: T1, CD24-GST fusion protein

Row | Binder | IC50 (CD24-GST fusion protein [1]) | IC50 (CD24-GST fusion protein [2]) | IC50 (CD24-GST fusion protein [3])
1 | B1 | 0.0299 µg/mL | – | –
2 | B2 | 0.0419 µg/mL | 0.0415 µg/mL | 0.0411 µg/mL
3 | B3 | – | – | 0.0768 µg/mL
4 | B4 | 0.0856 µg/mL | 0.0834 µg/mL | 0.0814 µg/mL
5 | B5 | – | – | 0.0589 µg/mL
6 | B6 | – | 0.0284 µg/mL | –
7 | B7 | – | – | 0.0372 µg/mL
8 | B8 | – | 0.0249 µg/mL | –
9 | B9 | – | – | 0.0888 µg/mL
10 | B10 | – | – | 0.0713 µg/mL
11 | B11 | 0.0269 µg/mL | 0.0268 µg/mL | –
12 | B12 | 0.0611 µg/mL | – | –
13 | B13 | 0.0345 µg/mL | – | –
14 | B14 | 0.0642 µg/mL | – | –
15 | B15 | – | – | 0.0426 µg/mL
16 | B16 | 0.0336 µg/mL | – | –
17 | B17 | – | 0.0207 µg/mL | –

From patent US20250243292A1 (published 2025)
